Entries after “also recorded” stand apart in the source; their conditions may differ.
Target: T1, human TLR-2 (Homo sapiens, UniProt O60603)
T1 construct: host or cells: HEK293 (HEK-Blue-hTLR2 cells)
Experiment: HEK-Blue-hTLR2 NF-κB SEAP reporter assay
Format: cell-based
Conditions: MMP-2 5 mg/ml; twenty hours; with/without TLR2 blocking antibody
Protocol: A) DCs were exposed to various TLR agonists for 2 days before cells were stained for OX40L. […] B) TLR2-transfected and engineered HEK cells were incubated with MMP-2 (5 mg/ml) or various controls. All conditions were also tested in the presence of a blocking antibody for TLR2. TNFα was used to activate NF-κB in a TLR-independent manner. Twenty hours later, NF-κB activation was measured.
TLR2-transfected and engineered HEK cells were incubated with MMP-2 (5 mg/ml), TLR2 agonists, recombinant PEX and 3 pools of overlapping 20-mers covering MMP-2. OLP1: mix of 22 overlapping peptides covering MMP-2 from amino-acid 1 to 220; OLP2: mix of 22 overlapping peptides covering MMP-2 from amino-acid 210 to 440; OLP3: mix of 22 overlapping peptides covering MMP-2 from amino-acid 450 to 660. Twenty hours later, NF-κB activation was measured. Neither PEX nor the peptides triggered NF-κB signaling.
TLR-2-transfected (stably) HEK-Blue™ Cells represent a very efficient high throughput reagent for screening due to an easy read-out. […] Levels of SEAP can be readily determined with QUANTI-Blue™, a detection medium that turns purple/blue in the presence of alkaline phosphatase. […] Inhibition of NF-κB activation by any agents/molecules can be assessed and confirmed in DCs (which endogenously express TLR2 or are engineered to express exogenous TLR2) in order to corroborate the initial screening results in a native or more natural context. […] TLR-2-expressing cells, such as those described herein, can be incubated with agents/molecules and molecular interactions assessed using methods, such as, e.g., co-immunoprecipitation of MMP-2 and TLR-2 from the cell lysates. […] Additional methods can be used to evaluate if MMP-2 and TLR-2 interact directly, including other affinity-based methods (e.g., affinity chromatography or panning), competitive inhibition assays, and various visualization techniques, such as fluorescence resonance energy transfer (FRET) and others which are known in the art. […]

T1 sequence (O60603 21-784): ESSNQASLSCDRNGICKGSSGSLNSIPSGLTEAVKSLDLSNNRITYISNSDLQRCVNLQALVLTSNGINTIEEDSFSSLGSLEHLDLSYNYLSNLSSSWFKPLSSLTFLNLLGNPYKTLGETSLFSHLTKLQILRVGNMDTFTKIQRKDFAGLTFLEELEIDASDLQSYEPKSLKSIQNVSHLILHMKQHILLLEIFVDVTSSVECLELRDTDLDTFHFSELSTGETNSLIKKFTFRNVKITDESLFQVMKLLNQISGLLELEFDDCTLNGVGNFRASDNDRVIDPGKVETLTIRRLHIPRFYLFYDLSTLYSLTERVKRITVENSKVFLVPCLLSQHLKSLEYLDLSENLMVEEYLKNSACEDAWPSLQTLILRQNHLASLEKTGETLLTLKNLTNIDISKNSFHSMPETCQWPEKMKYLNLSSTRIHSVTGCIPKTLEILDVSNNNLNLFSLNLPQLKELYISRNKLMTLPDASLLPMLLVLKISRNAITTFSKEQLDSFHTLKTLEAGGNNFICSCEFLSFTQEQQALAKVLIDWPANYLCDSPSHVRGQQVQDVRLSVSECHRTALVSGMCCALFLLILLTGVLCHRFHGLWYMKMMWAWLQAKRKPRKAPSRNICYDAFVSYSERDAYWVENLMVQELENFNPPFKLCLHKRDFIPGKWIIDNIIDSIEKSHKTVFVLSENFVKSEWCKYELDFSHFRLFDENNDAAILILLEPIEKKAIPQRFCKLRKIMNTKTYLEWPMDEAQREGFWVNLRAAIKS

B1: matrix metalloproteinase-2 (protein)
chain: YNFFPRKPKWDKNQITYRIIGYTPDLDPETVDDAFARAFQVWSDVTPLRFSRIHDGEADIMINFGRWEHGDGYPFDGKDGLLAHAFAPGTGVGGDSHFDDDELWTLGEGQVVRVKYGNADGEYCKFPFLFNGKEYNSCTDTGRSDGFLWCSTTYNFEKDGKYGFCPHEALFTMGGNAEGQPCKFPFRFQGTSYDSCTTEGRTDGYRWCGTTEDYDRDKKYGFCPETAMSTVGGNSEGAPCVFPFTFLGNKYESCTSAGRSDGKMWCATTANYDDDRKWGFCPDQGYSLFLVAAHEFGHAMGLEHSQDPGALMAPIYTYTKNFRLSQDDIKGIQELYGASPDIDLGTGPTPTLGPVTPEICKQDIVFDGIAQIRGEIFFFKDRFIWRTVTPRDKPMGPLLVATFWPELPEKIDAVYEAPQEEKAVFFAGNEYWIYSASTLERGYPKPLTSLGLPPDVQRVDAAFNWSKNKKTYIFAGDKFWRYNEVKKKMDPGFPKLIADAWNAIPDNLDAVVDLQGGGHSYFFKGAYYLKLENQSLKSVKFGSIKSDWLGC
- NF-κB activation in TLR2-transfected HEK cells: activates NF-κB through TLR-2 triggering; also recorded: activate NF-κB in a TLR2-dependent manner

From patent publication US9539315B2, “Methods, agents and peptides for inhibiting matrix metalloproteinase-2 signaling” (New York University, priority 2011, dated 2017)
